This data set deals with the molecule itself. As to the kind of experiment: cryo-EM structure.

B1: MscS/YnaI chimera (other, E. coli | Escherichia coli, UniProt P0C0S1 1-31, looked up)
chain: MEDLNVVDSINGAGSWLVANQALLLSYAVNIIDFICTSLIAVILTIKLFLLINQFEKQQIKKGRDITSARIMSRIIKITIIVVLVLLYGEHFGMSLSGLLTFGGIGGLAVGMAGKDILSNFFSGIMLYFDRPFSIGDWIRSPDRNIEGTVAEIGWRITKITTFDNRPLYVPNSLFSSISVENPGRMTNRRITTTIGLRYEDAAKVGVIVEAVREMLKNHPAIDQRQTLLVYFNQFADSSLNIMVYCFTKTTVWAEWLAAQQDVYLKIIDIVQSHGADFAFPSQTLYMDNITPPEQGR
Turning to B1, the binding result is “binds”.

The values are drawn from paper PMC12344017 (Nature Communications, 2025).
